Experimental findings from patent US20240010696A1 are described below.

The assay addresses mouse IL-12 receptor on cells (mouse) (UniProt Q60837). The assay can be described thus: cell-based or functional assay.

Sequence of mouse IL-12 receptor on cells (mouse) (Q60837 20-738, chain 1 of 2): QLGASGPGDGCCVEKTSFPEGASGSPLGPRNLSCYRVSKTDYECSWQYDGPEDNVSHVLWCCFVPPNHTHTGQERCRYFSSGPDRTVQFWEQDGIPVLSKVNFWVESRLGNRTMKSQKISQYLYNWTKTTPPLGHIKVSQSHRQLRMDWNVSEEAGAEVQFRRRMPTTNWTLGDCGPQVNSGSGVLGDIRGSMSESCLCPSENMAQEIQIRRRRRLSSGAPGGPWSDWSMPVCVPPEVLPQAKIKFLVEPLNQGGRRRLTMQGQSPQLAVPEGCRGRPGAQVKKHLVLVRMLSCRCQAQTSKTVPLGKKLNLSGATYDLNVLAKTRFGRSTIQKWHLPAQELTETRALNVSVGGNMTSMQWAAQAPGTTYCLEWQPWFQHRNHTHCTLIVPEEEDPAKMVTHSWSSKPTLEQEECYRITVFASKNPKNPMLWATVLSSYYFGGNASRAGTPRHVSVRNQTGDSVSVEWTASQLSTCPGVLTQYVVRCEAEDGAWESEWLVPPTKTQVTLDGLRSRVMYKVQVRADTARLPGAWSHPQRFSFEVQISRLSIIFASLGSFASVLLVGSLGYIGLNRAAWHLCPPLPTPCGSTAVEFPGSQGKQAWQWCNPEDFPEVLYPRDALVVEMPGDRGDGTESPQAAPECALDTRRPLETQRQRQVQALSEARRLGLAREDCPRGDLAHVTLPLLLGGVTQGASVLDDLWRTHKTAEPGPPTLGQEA
Sequence of mouse IL-12 receptor on cells (mouse) (P97378 24-874, chain 2 of 2, further chain): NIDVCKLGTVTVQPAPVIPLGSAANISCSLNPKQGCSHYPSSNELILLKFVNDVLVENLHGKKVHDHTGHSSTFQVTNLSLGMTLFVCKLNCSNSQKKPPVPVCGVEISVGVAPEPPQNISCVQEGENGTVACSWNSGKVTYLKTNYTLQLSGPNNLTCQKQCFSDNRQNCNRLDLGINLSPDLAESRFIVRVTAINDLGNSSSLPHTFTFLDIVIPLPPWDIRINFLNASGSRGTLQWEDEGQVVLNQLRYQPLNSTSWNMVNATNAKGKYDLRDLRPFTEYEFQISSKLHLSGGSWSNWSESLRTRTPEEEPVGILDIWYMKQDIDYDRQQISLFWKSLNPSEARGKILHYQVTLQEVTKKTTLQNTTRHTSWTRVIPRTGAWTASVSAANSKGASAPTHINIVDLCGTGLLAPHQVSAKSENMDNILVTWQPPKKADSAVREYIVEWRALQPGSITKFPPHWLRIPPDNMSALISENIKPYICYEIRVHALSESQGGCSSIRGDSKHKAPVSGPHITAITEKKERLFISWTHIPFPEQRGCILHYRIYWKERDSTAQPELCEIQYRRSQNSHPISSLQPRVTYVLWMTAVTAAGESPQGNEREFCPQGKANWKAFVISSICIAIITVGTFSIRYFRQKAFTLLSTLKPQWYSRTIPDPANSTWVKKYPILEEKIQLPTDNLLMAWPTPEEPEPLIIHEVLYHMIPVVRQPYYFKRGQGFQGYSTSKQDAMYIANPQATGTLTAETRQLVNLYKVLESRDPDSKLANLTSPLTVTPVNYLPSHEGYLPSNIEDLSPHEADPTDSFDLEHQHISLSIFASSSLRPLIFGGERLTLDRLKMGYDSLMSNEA

B1: mIL12 mutein-isotype (mouse IL-12 mutein fused to a human isotype (IgG1) control antibody) (protein, part only; not given: isotype control antibody, part only)
chain: MWELEKDVYVVEVDWTPDAPGETVNLTCDTPEEDDITWTSDQRHGVIGSGKTLTITVKEFLDAGQYTCHKGGETLSHSHLLLHKKENGIWSTEILKNFKNKTFLKCEAPNYSGRFTCSWLVQRNMDLKFNIKSSSSSPDSRAVTCGMASLSAEKVTLDQRDYEKYSVSCQEDVTCPTAEETLPIELALEARQQNKYENYSTSFFIRDIIKPDPPKNLQMKPLKNSQVEVSWEYPDSWSTPHSYFSLKFFVGGGEKMKETEEGCNQKGAFLVEKTSTEVQCKGGNVCVQAQDRYYNSSCSKWACVPCRVRSGGGGGGSRVIPVSGPARCLSQSRNLLKTTDDMVKTAREKLEFYPCTAEDIDHEDITRDQTSTLKTCLPLELHKNESCLATRETSSTTRGSCLPPQKTSLMMTLCLGSIYEDLKMYQTEFQAINAALQNHNHQQIILDKGMLVAIDELMQSLNHNGETLRQKPPVGEADPYRVKMKLCILLHAFSTRVVTINRVMGYLSSA
B1 yielded a Reduction in pSTAT4 production of 2) mutein IL-12 fused to isotype mAb as compared to 1) wild-type IL12 fused to isotype mAb (activated mouse CD4 T cells, flow cytometry) of 23200 fold.
